Results on one molecule are retold here after patent publication US20170204184A1 (CB THERAPEUTICS, published 2017).

For test [1], the target named is T1, Human PD-L1 (human, UniProt Q9NZQ7 19-238, limits assumed).
T1 construct: also called PD-L1 analyte (Biacore); hPD-L1
Nature of the test: SPR (Biacore 3000), antibody captured, PD-L1 as analyte, 1:1 fit. How it is done: (§1) The binding kinetics between PD-L1 and PD-L1 antibodies were measured by Biacore analysis, which was performed at 25° C. on a Biacore3000 instrument and recorded with a data collection rate of 1 Hz. Polyclonal rabbit anti-mouse IgG (GE, BR-1008-38) was diluted with 10 mM pH 5.0 sodium acetate and immobilized onto reference and experiment flow cells of a CM5 biosensor chip to around 15000 RU using an amine coupling kit (GE, BR10050). […] PD-L1 analyte series were prepared by diluting the stocks with running buffer to 100 nM followed by 2× serial dilution in the same buffer down to 0.78 nM. Analytes were injected in series over the reference and experiment flow cells for 3 minutes at a flow rate of 30 μL/minute. Running buffer (PBS with 0.05% P20) was allowed to flow over for 10 minutes at a flow rate of 30 μL/minute. At the end of each cycle, the biosensor surface was regenerated with 3 minutes injection of 10 mM pH1.7 Glycine-HCl buffer at a flow rate of 10 μL/minute. For each analyte sample injection (i.e. each cycle), binding responses obtained from the experimental biosensor surface were double referenced by subtracting simultaneously recorded responses from the reference surface followed by additional subtraction of responses from a single referenced running buffer sample. The association and dissociation rate constants (ka and kd) were determined simultaneously by fitting double-referenced sensorgrams of the entire titration series to Langmuir model (1:1) using Biaevaluation 4.0 software. The dissociation constant, KD, was calculated from the determined rate constants by the relation KD=kd/ka.
(Surface plasmon resonance follows binding to a sensor surface in real time, without labels.)

Test [2] has as its target T2, cynomolgus PD-L1 (cynomolgus, UniProt G7PSE7 19-238).
T2 construct: also called Cyno-PD-L1; cyno-PD-L1; not shown: Any tag or Fc carrier on the soluble cynomolgus PD-L1 analyte
The test is described as above. How it is done: as §1

T1 sequence (Q9NZQ7 19-238 limits assumed): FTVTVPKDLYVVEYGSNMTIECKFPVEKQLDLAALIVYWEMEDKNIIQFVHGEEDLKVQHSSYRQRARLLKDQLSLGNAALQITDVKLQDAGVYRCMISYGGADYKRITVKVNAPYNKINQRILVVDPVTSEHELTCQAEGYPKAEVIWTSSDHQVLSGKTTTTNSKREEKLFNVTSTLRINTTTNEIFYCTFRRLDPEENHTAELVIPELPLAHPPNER
T2 sequence (G7PSE7 entry or part of it limits assumed): as the sequence (Q9NZQ7 19-238 limits assumed) above, with A33T, A34S, S62N, R68Q, Q82R, F173L, T185A, T192I, H215L counted along it

B1: hu13C5 (antibody)
VH: EVQLVESGGGLVKPGGSLRLSCAASGFIFRSYGMSWVRQAPGKGLEWVASISSGGSTYYPDSVKGRFTISRDNAKNSLYLQMNSLRAEDTAVYDCARGYDSGFAYWGQGTLVTVSS
light: DIVLTQSPASLAVSPGQRATITCRASQSVSTSSSSFMHWYQQKPGQPPKLLIKYASNLESGVPARFSGSGSGTDFTLTINPVEANDTANYYCQHSWEIPYTFGQGTKLEIKRTVAAPSVFIFPPSDEQLKSGTASVVCLLNNFYPREAKVQWKVDNALQSGNSQESVTEQDSKDSTYSLSSTLTLSKADYEKHKVYACEVTHQGLSSPVTKSFNRGEC
The Kd is the concentration at which binding is half-saturated. A high value points to a looser complex. With B1, the Kd was found to be 1.74 nM in test [1] and 2.43 nM in test [2].
